The target in test [1] is bovine lactoferrin (bovine). Put plainly: AUC; follow-up multi-signal sedimentation velocity (MSSV) without constraints, conducted almost identically to a1 but with absorbance at 280 nm and 250 nm and no interference signal; Tp34/bLF mixture in solution.
Test [2] deals with bovine lactoferrin (bovine). In words: AUC; multi-signal sedimentation velocity (MSSV) with mass conservation and low-s constraints; mixture of 6.9 µM Tp34 and 2.3 µM bLF in solution, diluted from Buffer A into 20 mM Tris pH 7.5, 20 mM NaCl; 20°C, 50,000 rpm; interference + absorbance at 280 nm; Kd estimated from the reaction boundary molar ratio by effective particle theory, assuming sAB = 6.2 S.

B1: Tp34 from Treponema pallidum (natural protein)
chain: CGGGGEHQHGEEMMAAVPAPDAEGAAGFDEFPIGEDRDVGPLHVGGVYFQPVEMHPAPGAQPSKEEADCHIEADIHANEAGKDLGYGVGDFVPYLRVVAFLQKHGSEKVQKVMFAPMNAGDGPHYGANVKFEEGLGTYKVRFEIAAPSHDEYSLHIDEQTGVSGRFWSEPLVAEWDDFEWKGPQW
For orientation: Kd means the constant that tells how readily two partners part at equilibrium. As to B1, the stoichiometry N (mol Tp34 per mol bLF) in test [1] was found to be 0.7. Also, in test [2], the Kd was 3.1 µM and the stoichiometry N (mol Tp34 per mol bLF) was 0.7.
